We go through two molecules from patent publication US20190322758A1 (IMMUNOPHARMACEUTIC INSTITUTE OF HEFEI RUIDA, published 2019).

Substitutions are numbered along the chain they refer to.

The experiment concerns the target T1, recombinant LunX protein (antigenic protein fragment of SEQ ID NO: 9 with C-terminal 6His-Tag) (human, UniProt Q9NP55 103-256).
T1 construct: Expressed in E. coli Rosetta (DE3) from pET-22b(+); also called LunX prokaryotic recombinant fusion protein; human LunX protein
T1 sequence: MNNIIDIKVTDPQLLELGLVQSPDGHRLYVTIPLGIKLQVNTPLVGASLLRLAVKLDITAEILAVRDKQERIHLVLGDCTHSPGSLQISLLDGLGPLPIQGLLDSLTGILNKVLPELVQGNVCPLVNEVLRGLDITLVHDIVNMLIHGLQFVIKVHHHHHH
The experiment can be described thus: hybridoma screening, ELISA (and FACS). In general terms: An ELISA detects its analyte on a solid surface through an enzyme-linked reagent.

B1: anti-LunX murine monoclonal antibody PrAb2 (hybridoma Ab2) (antibody, V domains shown)
VH: QVQLQQSGPELVKPGASVKISCKTSGYAFSRSWMSWVKQRPGQGLEWIGRIYPGDGDTKYSGKFEGKATLTADKSSSTAYMQLSSLTSVDSAVYFCARSGGIQGYGMDYWGQGTSVTVSS
VL: DIVVTQSPAALAVSLGQRATISCRASKSVSTSGYTYMHWYQQKPGQPPKLLIYLASKLESGVPARFSGSGSGTDFTLNIHPVEEEDAATYYCQHSRDLTFGSGTKLEIKR
notes: Mouse monoclonal antibody from hybridoma Ab2; heavy chain about 45 kDa, light chain about 25 kDa
Turning to B1, the binding result is listed as “binds”.

B2: anti-LunX murine monoclonal antibody PrAb1 (hybridoma Ab1) (antibody, V domains shown)
VH: B1 VH with K59N, S61N, E65K
VL: B1 VL with V4L, A10S, S32A, T35S, P47T, D97E
notes: Mouse monoclonal antibody from hybridoma Ab1; heavy chain about 45 kDa, light chain about 25 kDa
With B2, the binding result is recorded as “binds”.
